In publication PMC3683130 one finds stoichiometry N data, which are given here for one substance.

The test concerns the target FLAG-tagged PUD-1 (C. elegans). Description: affinity purification with mass spectrometry; anti-FLAG IP (M2 beads) from worms with single-copy FLAG::PUD-1, N2 as control; eluted with 3xFLAG peptide; silver-stained bands cut and identified by LC-MS/MS.

What is called stoichiometry N is a count of units in the complex or per binding partner.

FLAG-tagged PUD-1 (C. elegans), sequence (main, as listed by the source): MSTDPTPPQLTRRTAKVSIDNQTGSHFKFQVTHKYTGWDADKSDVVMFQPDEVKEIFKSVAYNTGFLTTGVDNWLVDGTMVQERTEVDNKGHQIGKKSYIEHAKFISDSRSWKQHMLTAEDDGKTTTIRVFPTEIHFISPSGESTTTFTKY

Consider Endogenous PUD-2 (natural protein), for which the stoichiometry N was determined as 1.
